Test results: patent US20250188133A1, “CHIMERIC BACTERIOCINS AND METHOD FOR THE CONTROL OF PSEUDOMONAS” (priority 2022, published 2025)

Experiments:
Assay type in all cases: cell-based
[1] = system: P. aeruginosa strains; experiment: agar disc-diffusion assay, panel of 25 strains
Description: (§1) Overnight P. aeruginosa cultures grown in CAA medium were equalized till OD595=1.0 in CAA and diluted 100×. Sterile cotton swab was briefly submerged in diluted microbial suspension, removing the excess of liquid by pressing it against the container wall. The swab was used for evenly streaking bacteria on plates containing growth medium with CAA solid agar (1.5%). 6 mm diameter sterile Whatman discs were placed on soft-agar and 0.3-30 μg of chimeric pyocins were spotted to paper disks. The plates were incubated overnight at 37° C. and bacteriocin inhibition zones were observed.
(§2) Next, all 25 P. aeruginosa strains were subjected to agar disc-diffusion assay by spotting different amounts of purified pyocin S5 (0.3 μg, 3 μg and 30 μg) on bacteria lawns. Six P. aeruginosa strains were resistant to pyocin S5. Four of these six strains were pyocin S5 and immunity protein-encoding strains—PA14, PAO1, […] and NCTC 13921. Two cystic fibrosis isolates, 12-35708 and 12-29165 were also completely resistant to pyocin S5, despite the absence of S5, or S5 immunity protein coding genes. […] Turbid inhibition zones were detected when 3 μg and 30 μg of S5 were spotted on the lawn of these strains (Table 1, FIG. 3).

[2] = system: P. aeruginosa HP40; experiment: agar disc-diffusion assay; conditions: strain HP40; 0.3, 3 and 30 μg of protein spotted on discs on CAA agar lawn, overnight
Description: as §1, §2

[3] = system: P. aeruginosa BI80; experiment: agar disc-diffusion assay; conditions: strain BI80; 0.3, 3 and 30 μg of protein spotted on discs on CAA agar lawn, overnight
Description: as §1, §2

[4] = system: P. aeruginosa NCTC 13437; experiment: agar disc-diffusion assay; conditions: strain NCTC 13437; 0.3, 3 and 30 μg of protein spotted on discs on CAA agar lawn, overnight
Description: as §1, §2

[5] = system: P. aeruginosa HP75; experiment: agar disc-diffusion assay; conditions: strain HP75; 0.3, 3 and 30 μg of protein spotted on discs on CAA agar lawn, overnight
Description: as §1, §2

[6] = system: P. aeruginosa PAO1; experiment: agar disc-diffusion assay; conditions: strain PAO1; 0.3, 3 and 30 μg of protein spotted on discs on CAA agar lawn, overnight
Description: as §1, §2

[7] = system: P. aeruginosa ATCC 29260; experiment: agar disc-diffusion assay; conditions: strain ATCC 29260; 0.3, 3 and 30 μg of protein spotted on discs on CAA agar lawn, overnight
Description: as §1, §2

[8] = system: P. aeruginosa 13-18499; experiment: agar disc-diffusion assay; conditions: strain 13-18499; 0.3, 3 and 30 μg of protein spotted on discs on CAA agar lawn, overnight
Description: as §1, §2

[9] = system: P. aeruginosa ATCC 19660; experiment: agar disc-diffusion assay; conditions: strain ATCC 19660; 0.3, 3 and 30 μg of protein spotted on discs on CAA agar lawn, overnight
Description: as §1, §2

[10] = system: P. aeruginosa HP1; experiment: agar disc-diffusion assay; conditions: strain HP1; 0.3, 3 and 30 μg of protein spotted on discs on CAA agar lawn, overnight
Description: as §1, §2

[11] = system: P. aeruginosa HP6; experiment: agar disc-diffusion assay; conditions: strain HP6; 0.3, 3 and 30 μg of protein spotted on discs on CAA agar lawn, overnight
Description: as §1, §2

[12] = system: P. aeruginosa A19; experiment: agar disc-diffusion assay; conditions: strain A19; 0.3, 3 and 30 μg of protein spotted on discs on CAA agar lawn, overnight
Description: as §1, §2

[13] = system: P. aeruginosa Boston 41501 (ATCC 27853); experiment: agar disc-diffusion assay; conditions: strain Boston; 0.3, 3 and 30 μg of protein spotted on discs on CAA agar lawn, overnight
Description: as §1, §2

[14] = system: P. aeruginosa Bu002; experiment: agar disc-diffusion assay; conditions: strain Bu002; 0.3, 3 and 30 μg of protein spotted on discs on CAA agar lawn, overnight
Description: as §1, §2

[15] = system: P. aeruginosa HP52; experiment: agar disc-diffusion assay; conditions: strain HP52; 0.3, 3 and 30 μg of protein spotted on discs on CAA agar lawn, overnight
Description: as §1, §2

[16] = system: P. aeruginosa HP41; experiment: agar disc-diffusion assay; conditions: strain HP41; 0.3, 3 and 30 μg of protein spotted on discs on CAA agar lawn, overnight
Description: as §1, §2

[17] = system: P. aeruginosa Pr335; experiment: agar disc-diffusion assay; conditions: strain Pr335; 0.3, 3 and 30 μg of protein spotted on discs on CAA agar lawn, overnight
Description: as §1, §2

[18] = system: P. aeruginosa UR78; experiment: agar disc-diffusion assay; conditions: strain UR78; 0.3, 3 and 30 μg of protein spotted on discs on CAA agar lawn, overnight
Description: as §1, §2

[19] = system: P. aeruginosa BR79; experiment: agar disc-diffusion assay; conditions: strain BR79; 0.3, 3 and 30 μg of protein spotted on discs on CAA agar lawn, overnight
Description: as §1, §2

[20] = system: P. aeruginosa BL77; experiment: agar disc-diffusion assay; conditions: strain BL77; 0.3, 3 and 30 μg of protein spotted on discs on CAA agar lawn, overnight
Description: as §1, §2

[21] = system: P. aeruginosa NCTC 13921; experiment: agar disc-diffusion assay; conditions: strain NCTC 13921; 0.3, 3 and 30 μg of protein spotted on discs on CAA agar lawn, overnight
Description: as §1, §2

[22] = system: P. aeruginosa PA14; experiment: agar disc-diffusion assay; conditions: strain PA14; 0.3, 3 and 30 μg of protein spotted on discs on CAA agar lawn, overnight
Description: as §1, §2

[23] = system: P. aeruginosa EY76; experiment: agar disc-diffusion assay; conditions: strain EY76; 0.3, 3 and 30 μg of protein spotted on discs on CAA agar lawn, overnight
Description: as §1, §2

[24] = system: P. aeruginosa HP7; experiment: agar disc-diffusion assay; conditions: strain HP7; 0.3, 3 and 30 μg of protein spotted on discs on CAA agar lawn, overnight
Description: as §1, §2

B1: S5-Pflu095: chimeric bacteriocin SEQ ID NO: 9: pyocin S5 first segment fused to P. fluorescens Pflu095 killing domain (protein)
chain: MSNDNEVPGSMVIVAQGPDDQYAYEVPPIDSAAVAGNMFGDLIQREIYLQKNIYYPVRSIFEQGTKEKKEINKKVSDQVDGLLKQITQGKREATRQERVDVMSAVLHKMESDLEGYKKTFTKGPFIDYEKQSSLSIYEAWVKIWEKNSWEERKKYPFQQLVRDELERAVAYYKQDSLSEAVKVLRQELNKQKALKEKEDLSQLERDYRTRKANLEMKVQSELDQAGSALPPLVSPTPEQWLERATRLVTQAIADKKQLQTTNNTLIKNSPTPLEKQKAIYNGELLVDEIASLQARLVKLNAETTRRRTEKDKVRTEVVDIEAAIKFTSDFYAEAGVRFGDSASKLASDLADSAQGKKIRSADEAFKAFDKYKNELDKKFSVKDRAAAAKYIDSIDYEAIGKAATKFSKGLGYVGPVIDAKDSIIEFINSMESGDWKPFFLKLESIALGLAATAFVGIAFGFIATTPMGILAFAFIVAATGAAIDDNFAEKLNKFVSSL
modifications: S5-Pflu095
[1]; clinical isolates HP6 and HP7, S5 gave turbid zones with 3 μg and 30 μg
  inhibition on lawns of S5 producer strains HP6 and HP7: significantly larger and clearer than those formed by S5
[1]; panel of 25 P. aeruginosa strains, in words
  activity spectrum / profile in agar disc diffusion assay: broadened activity spectrum in comparison to pyocin S5
[1]; six pyocin S5 and immunity gene-positive strains (PA14, PAO1, HP6, HP7, ATCC 19660, NCTC 13921)
  inhibition zones on lawns of S5-producing strains: formed inhibition zones on the lawns of all six S5-producing strains
[2]
  Activity in agar disc-diffusion assay: *** (activity detected with 0.3 μg of protein)
[3]
  Activity in agar disc-diffusion assay: *** (activity detected with 0.3 μg of protein)
[4]
  Activity in agar disc-diffusion assay: * (activity detected only with 30 μg of protein)
[5]
  Activity in agar disc-diffusion assay: * (activity detected only with 30 μg of protein)
[6]
  Activity in agar disc-diffusion assay: *** (activity detected with 0.3 μg of protein)
[7]
  Activity in agar disc-diffusion assay: *** (activity detected with 0.3 μg of protein)
[8]
  Activity in agar disc-diffusion assay: ** (activity detected with 3 μg of protein)
[9]
  Activity in agar disc-diffusion assay: * (activity detected only with 30 μg of protein)
[10]
  Activity in agar disc-diffusion assay: *** (activity detected with 0.3 μg of protein)
[11]
  Activity in agar disc-diffusion assay: *** (activity detected with 0.3 μg of protein)
[12]
  Activity in agar disc-diffusion assay: *** (activity detected with 0.3 μg of protein)
[13]
  Activity in agar disc-diffusion assay: *** (activity detected with 0.3 μg of protein)
[14]
  Activity in agar disc-diffusion assay: *** (activity detected with 0.3 μg of protein)
[15]
  Activity in agar disc-diffusion assay: ** (activity detected with 3 μg of protein)
[16]
  Activity in agar disc-diffusion assay: *** (activity detected with 0.3 μg of protein)
[17]
  Activity in agar disc-diffusion assay: *** (activity detected with 0.3 μg of protein)
[18]
  Activity in agar disc-diffusion assay: *** (activity detected with 0.3 μg of protein)
[19]
  Activity in agar disc-diffusion assay: ** (activity detected with 3 μg of protein)
[20]
  Activity in agar disc-diffusion assay: ** (activity detected with 3 μg of protein)
[21]
  Activity in agar disc-diffusion assay: *** (activity detected with 0.3 μg of protein)
[22]
  Activity in agar disc-diffusion assay: ** (activity detected with 3 μg of protein)
[23]
  Activity in agar disc-diffusion assay: *** (activity detected with 0.3 μg of protein)
[24]
  Activity in agar disc-diffusion assay: *** (activity detected with 0.3 μg of protein)
